B1: Methanocaldococcus jannaschii fumarate hydratase α-subunit (enzyme)
chain: KISDVVVELFREAAIYLPEDVKNALEEAYKKESSEISKNTLKAIIENNKIAEETQVPLCQDTGVPIVFLKIGKNINSSEIMKIIEEIKEGVKKATEEVPLRPNVVHPLTRENFKTNVGLNSPFINIEFDESLDREIEIIAFPKGAGSENMSALKMLKPSDGIEGIKNFVLETIANAGGKPCPPIVVGIGIGGTADVALKLAKKALLRKIGERHRDKEIANLEKELLEKINSLGIGAMGLGGDITALDVFIEIAGCHTASLPVGICIQCWADRRAIKRIKLDAKL

Columns and labels:
SEC = target: the molecule itself; test: SEC
[1] = target: B1; test: ITC
crystal structure = target: the molecule itself; test: crystal structure

## B1
SEC
  stoichiometry N: 2

B2: Methanocaldococcus jannaschii fumarate hydratase β-subunit (enzyme)
chain: MEYTFNKLTKKDVKKLKVGDIVYLNGKIYTARDEAHLKIIEMLKSNEKLPFDLNESIIYHAGPIMKKVNDSWVCVSIGPTTSARMNDVEEEFIKLTNISAIVGKGGMKKELLKTFEDYGVVYLAAPGGCAALLANSVKRVDNVYFLDELGMPEAVWELEVNNFGPLIVAMDSHGNSIYEEVNKKVYEKLNELIGL
[1]
  Kd: 595 ± 19 nM

B3: Selenomethionine incorporated Methanocaldococcus jannaschii fumarate hydratase α-subunit (of Se-MjFHαβ) (enzyme)
chain: KISDVVVELFREAAIYLPEDVKNALEEAYKKESSEISKNTLKAIIENNKIAEETQVPLCQDTGVPIVFLKIGKNINSSEIMKIIEEIKEGVKKATEEVPLRPNVVHPLTRENFKTNVGLNSPFINIEFDESLDREIEIIAFPKGAGSENMSALKMLKPSDGIEGIKNFVLETIANAGGKPCPPIVVGIGIGGTADVALKLAKKALLRKIGERHRDKEIANLEKELLEKINSLGIGAMGLGGDITALDVFIEIAGCHTASLPVGICIQCWADRRAIKRIKLDAKL
modifications: selenomethionine incorporated (eleven selenium atoms per functional dimer)
Crystal structure
  binding result: binds

— article doi:10.1101/2022.09.03.506457 (bioRxiv, 2022)
